Source: US5885811A, “Leader sequence inducing a post-translational modification of polypeptides in bacteria gene therefor and subtilin variant of enhanced stability and activity” (University of Maryland, priority 1995, dated 1999)

Experiments:
[1] = format: physicochemical
Description: Measurement of chemical stability of DHA5. The dehydro residues of nisin and subtilin have vinyl protons that give well-separated resonances in the proton NMR spectrum, Liu and Hansen, Appl. Environ. Microbiol., 56, p. 251 (1990). The areas of the vinyl proton peaks in the NMR spectrum were measured, and chemical modification of DHA5 over time was taken as the decrease in peak area of the DHA5 vinyl protons in subtilin and in E4I-subtilin as compared to zero time. Proton NMR spectra were obtained using a Bruker AMX-500 NMR spectrometer. The spectra were obtained at a constant temperature of 295K, using selective solvent suppression.
Chemical and biological stability of natural subtilin. The natural producer of subtilin is B. subtilis ATCC 6633. […] These dissolved samples were incubated at room temperature, and from time to time, the NMR spectrum of the one sample and the biological activity of the other sample against Bacillus cereus spores were determined. […]
E4I-subtilin has enhanced chemical and biological stability. The central design strategy in the construction of a stable mutant of subtilin was based on the idea that the chemical and biological stabilities of subtilin are determined by the chemical reactivity of DHA5; and that DHA5 in natural subtilin is unstable because the Glu4 carboxyl participates in its chemical modification (FIG. 7). […]

[2] = tested on: Bacillus cereus spores; experiment: Biological stability: activity against Bacillus cereus spores over time of incubation; format: cell-based; details: 50 mM NaPi pH 6.8, room temperature, compared with DHA5 disappearance
Description: (§1) Measurement of biological stability of subtilin. Biological activity against Bacillus cereus spores was measured by a liquid assay in which various concentrations of subtilin were added to a suspension of Bacillus cereus T spores in 15 ml polypropylene tubes, and inhibitory effects were evaluated by phase-contrast microscopy as described previously (Morris et al, J. Biol. Chem., 259, 13590-13594 (1984) and Appl. Environ. Microbiol., 42, 958-962 (1981)). The amount of subtilin required to inhibit spore outgrowth during the 3 hour assay period was used as a measure of antimicrobial activity. Relative amounts of subtilin were estimated from the area of the subtilin peak (measured at 254 nm) that eluted from the C-18 analytical HPLC column during purification. The amounts were converted to molar quantities of subtilin by comparing the peak area of subtilin with that of a known molar quantity of a nisin standard (21). For this purpose, the extinction coefficients of nisin and subtilin at 254 nm were assumed to be the same, in that absorbance at this wavelength is mainly due to the same three dehydro residues present in both peptides. The biological activity against Bacillus cereus spores of the E4I-subtilinmutant was determined in the same way as for natural subtilin.
Chemical and biological stability of natural subtilin. The natural producer of subtilin is B. subtilis ATCC 6633. […]

[3] = tested on: Bacillus cereus T spores; experiment: Spore outgrowth liquid assay (amount required to inhibit spore outgrowth during 3 hour assay); format: cell-based
Description: as §1
E4I-subtilin has enhanced specific activity. […]

[4] = reported; cited from earlier work

| Compound | increase in chemical and biological stability relative to natural subtilin [1] | loss of biological activity against Bacillus cereus spores during incubation [2] | t1/2 of chemical modification (disappearance) of DHA5, first-order ([1]; aqueous solution (D2O) pH 6.8, room temperature, NMR at 295K) | concentration showing inhibition of spore outgrowth [3] | concentration showing inhibition of spore outgrowth (molar) [3] | light sensitivity [4] |
| --- | --- | --- | --- | --- | --- | --- |
| C=C(NC(=O)[C@@H](NC(=O)[C@H](CCCCN)NC(=O)[C@@H]1CSC(C)[C@H]2NC(=O)[C@H](CC(C)C)NC(=O)[C@H](NC(=O)[C@H](CCC(N)=O)NC(=O)[C@H](CC(C)C)NC(=O)[C@H](Cc3ccccc3)NC(=O)[C@@H]3CSC(C)[C@@H](NC(=O)[C@@H](NC(=O)[C@@H]4CSC(C)[C@@H](NC(=O)[C@@H]5CSC[C@@H](NC(=O)[C@H](CCCCN)NC(=O)[C@@H](N)Cc6c[nH]c7ccccc67)C(=O)N[C@@H]([C@@H](C)CC)C(=O)NC(=C)C(=O)N[C@@H](CC(C)C)C(=O)N5)C(=O)N5CCC[C@H]5C(=O)NCC(=O)N4)C(C)C)C(=O)NCC(=O)N[C@@H](C)C(=O)N[C@@H](CC(C)C)C(=O)N[C@@H](CCC(N)=O)C(=O)NC(=CC)C(=O)N3)C(C)SC[C@H](NC2=O)C(=O)N[C@@H](CC(N)=O)C(=O)N1)[C@@H](C)CC)C(=O)N[C@@H](CCCCN)C(=O)O (stereo partly drawn) [E4I-subtilin] | 57 fold | – | – | – | – | – |
| C=C1NC(=O)CC[C@@H](C(=O)O)NC(=O)[C@H](NC(=O)[C@H](CCCCN)NC(=O)[C@@H](N)Cc2c[nH]c3ccccc23)CSC[C@@H](C(=O)N[C@@H]2C(=O)N3CCC[C@H]3C(=O)NCC(=O)N[C@H](C(=O)N[C@H](C(=O)N[C@@H]3C(=O)NCC(=O)N[C@@H](C)C(=O)N[C@@H](CC(C)C)C(=O)N[C@@H](CCC(N)=O)C(=O)N/C(=C/C)C(=O)N[C@H](C(=O)N[C@@H](Cc4ccccc4)C(=O)N[C@@H](CC(C)C)C(=O)N[C@@H](CCC(N)=O)C(=O)N[C@@H]4C(=O)N[C@@H](CC(C)C)C(=O)N[C@H]5C(=O)N[C@@H](CSC4C)C(=O)NC(=O)[C@H](CC(N)=O)N[C@H](C(=O)N[C@@H](CCCCN)C(=O)N[C@H](C(=O)NC(=C)C(=O)N[C@@H](CCCCN)C(=O)O)[C@@H](C)CC)CSC5C)CSC3C)C(C)C)CSC2C)N[C@@H](CC(C)C)C(=O)NC1=O (stereo partly drawn) [subtilin] | – | dropped at approximately this same rate | 19 h | about 1 μg per ml | ~280 nM | light-sensitive |
